Measurements: paper PMC9001736

Experiments:
[1] = molecular target: ZZ domain of HERC2 (HERC2ZZ, aa 2702–2755 with additional tryptophan at the C-terminus) (human) (UniProt O95714); experiment: other fluorescence titration; tryptophan fluorescence; 1 μM HERC2ZZ with increasing REEE peptide; 25 °C; 20 mM Tris (pH 6.8), 150 mM NaCl, 2 mM DTT; excitation 295 nm
[2] = molecular target: ZZ domain of HERC2 (HERC2ZZ, aa 2702–2755 with additional tryptophan at the C-terminus) (human) (UniProt O95714); experiment: other fluorescence titration; tryptophan fluorescence; 1 μM HERC2ZZ with 1 μM HERC2DOC present, increasing REEE peptide; 25 °C; 20 mM Tris (pH 6.8), 150 mM NaCl, 2 mM DTT

Chain of ZZ domain of HERC2 (HERC2ZZ, aa 2702–2755 with additional tryptophan at the C-terminus) (human) (O95714 other isoform, or with tags, fused parts or gaps): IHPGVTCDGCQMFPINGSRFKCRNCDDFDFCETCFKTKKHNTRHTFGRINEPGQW

- Kd [1]: 1200 nM
- Kd [2]: 1000 nM
Substance: REEE peptide (mimetic of the Nt-R cargo degradation signal)
